In this assay the target is MtbDop-F (Mycobacterium tuberculosis deamidase of Pup / depupylase, randomly fluorescein-labeled) (Mycobacterium tuberculosis) (UniProt P9WNU9). The assay can be described thus: MST; Monolith NT.115, starting temperature 19 C; 30 nM MtbDop-F with serial 1:1 dilutions of MtbPup or MtbPup ~ FabD-3KR from 25 uM to 15 nM; 50 mM HEPES-NaOH pH 7.5, 150 mM NaCl, 1 mM MgCl2, 10% glycerol, 0.01% Tween-20; T-jump analysis, fit assuming 1:1 binding.

One may read the Kd as a measure of binding affinity in units of concentration. Read a high Kd as a looser complex. Consider “MtbPup (prokaryotic ubiquitin-like protein from Mycobacterium tuberculosis, free) (from UniProt P9WHN5 1-64) (natural protein)”, for which the Kd is 14.6 nM.

The record behind these values is paper PMC5286830, “Prokaryotic ubiquitin-like protein remains intrinsically disordered when covalently attached to proteasomal target proteins” (BMC Structural Biology, 2017).
